Experimental data: article PMC9166750 (Scientific Reports, 2022)
Values belong to the molecule of their own block, whether it stands above or below them.

Columns and labels:
[1] = biological target: syntaxin-3b (residues 1–264)-Avi, T14E, double-cysteine construct labelled with FRET dyes (mouse) (UniProt Q64704); assay: FRET or BRET; single-molecule FRET within syntaxin-3b (donor and acceptor on two cysteines), tethered by C-terminal biotin to streptavidin on a PEG surface; 10 μM SNAP-25 and synaptobrevin-2 (1-96) in solution; low FRET (open) read as SNARE complex
[2] = biological target: syntaxin-3b (residues 1–264)-Avi, wild type, double-cysteine construct labelled with FRET dyes (mouse) (UniProt Q64704); assay: as above
[3] = biological target: syntaxin-1a cytoplasmic domain (residues 1–265) with C-terminal Avi-tag (UniProt P32851); assay: fluorescence polarisation; bulk fluorescence anisotropy; Alexa 488-labelled syntaxin about 0.5 μM in TBS (20 mM Tris pH 7.5, 150 mM NaCl, 0.5 mM TCEP), unlabelled SNAP-25A 0-0.900 μM, about 15 min at room temperature, 96 well plate; curves fit with Hill equations to estimate Kd
[4] = biological target: syntaxin-1a cytoplasmic domain (residues 1–265) with C-terminal Avi-tag (UniProt P32851); assay: pull-down; syntaxins biotinylated at the N-terminal amino group on neutravidin agarose beads; about 300 μg Munc18-1 incubated 1 h, washed, then 500 μg SNAP-25A 1 h at room temperature, washed with TBS; SDS-PAGE, Coomassie, Munc18-1 and SNAP-25 bands normalised to the syntaxin bands (ImageJ)
[5] = biological target: syntaxin-1a cytoplasmic domain (residues 1–265) with C-terminal Avi-tag (UniProt P32851); assay: fluorescence polarisation; ensemble fluorescence anisotropy of syntaxins with Munc18 (Supplemental Fig. 3); estimated Kd; conditions of this titration not told
Munc18-1 = biological target: T1, Munc18-1 (UniProt P61765 1-594); assay: as above; conditions: both partners purified
T1 construct: The methods describe no plasmid for Munc18-1; only its tag cleavage and gel filtration are told; source: E. coli BL21 (DE3*), purified (Ni-NTA, TEV cleavage, Superdex 200 gel filtration)

fold increase of SNARE complex formation against WT syntaxin-3b [1]: 2 fold
percent of molecules that formed ternary SNARE complex [2]: 50%
Molecule: synaptobrevin-2 cytoplasmic domain (residues 1–96) (from UniProt P63045 1-96) (domain or fragment)

Kd [3]: 161 nM
fold increase of SNARE complex formation against WT syntaxin-3b [1]: 2 fold
percent of molecules that formed ternary SNARE complex [2]: 50%
Molecule: SNAP-25, full length (from UniProt P60881-2 1-206) (natural protein)

percent decrease of binary t-SNARE complex formation with SNAP-25 in the presence of Munc18-1 [4]: 70%
Kd [5]: 6.6 nM
Molecule: Munc18-1 (from UniProt P61765 1-594) (natural protein)

Kd (Munc18-1): 9.6 nM
B1: syntaxin-3b cytoplasmic domain (residues 1–264) with C-terminal Avi-tag, wild type (domain or fragment, mouse, UniProt Q64704-2 1-264, looked up)
chain: MKDRLEQLKAKQLTQDDDTDEVEIAIDNTAFMDEFFSEIEETRLNIDKISEHVEEAKKLYSIILSAPIPEPKTKDDLEQLTTEIKKRANNVRNKLKSMEKHIEEDEVRSSADLRIRKSQHSVLSRKFVEVMTKYNEAQVDFRERSKGRIQRQLEITGKKTTDEELEEMLESGNPAIFTSGIIDSQISKQALSEIEGRHKDIVRLESSIKELHDMFMDIAMLVENQGAMIDRIENNMDQSVGFVERAVADTKKAVKYQSEARRKK
modifications: Alexa 488 (NHS ester) at the N-terminal primary amino group in the anisotropy assays; biotin (NHS-biotin) at the N-terminal primary amino group in the pull-downs
notes: syntaxin-3b (splice isoform 3b of syntaxin-3), cytoplasmic domain, residues 1-264; Gene synthesized and inserted into pJ414 (ATUM); The two native cysteines lie in the transmembrane region, which the Avi-tag replaces; also called SX-3b; WT syntaxin-3b; source: E. coli BL21 (DE3*), purified (Ni-NTA, TEV cleavage, HiTrap Q); not shown: His6, N-terminal, cleaved
